Data on one molecule can be found in patent publication US20250313625A1 (ELPISCIENCE SUZHOU BIOPHARMA, published 2025).

In general, IC50 refers to the concentration needed to halve the response being measured. Usually Kd stands for the free concentration of one partner at which half of the binding sites on the other are occupied at equilibrium, for simple one-to-one binding. High values mean lower affinity, low ones higher affinity. Usually koff stands for the first-order rate constant of dissociation. Lower therefore signals a long-lived complex. As a reminder, the kon is a measure of how fast the partners come together. The low end stands for slower complex formation, the high end for faster complex formation.

Assay [1] addresses T1, hFc tagged human LAG3 ECD recombinant protein (human, UniProt P18627 23-450).
T1 construct: range 23-450; also called biotin labelled hFc tagged human LAG3 ECD; not shown: human IgG Fc tag
T1 sequence (looked up): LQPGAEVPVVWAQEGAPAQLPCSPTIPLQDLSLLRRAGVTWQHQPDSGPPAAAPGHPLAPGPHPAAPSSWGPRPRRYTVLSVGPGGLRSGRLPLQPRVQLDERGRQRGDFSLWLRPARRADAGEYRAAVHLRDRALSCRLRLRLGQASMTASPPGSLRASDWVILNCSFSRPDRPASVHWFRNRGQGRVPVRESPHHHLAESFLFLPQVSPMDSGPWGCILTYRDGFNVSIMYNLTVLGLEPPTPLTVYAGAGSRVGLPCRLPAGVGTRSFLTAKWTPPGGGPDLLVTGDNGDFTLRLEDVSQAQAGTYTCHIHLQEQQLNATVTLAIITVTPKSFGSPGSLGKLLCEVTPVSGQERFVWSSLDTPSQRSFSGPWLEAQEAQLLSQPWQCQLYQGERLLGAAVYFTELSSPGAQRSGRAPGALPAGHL
The assay is described as follows: competitive ELISA format II: biotin hFc-LAG3 ECD binding to coated His-FGL1. The procedure:
(§1) After washing, HRP labeled anti-His 2nd antibody (Sigma) was added and incubated at 37° C. for 1 hour. Then, 100 μl/well of TMB solution (Biotechnology) was added. After incubation for 15 minutes at room temperature, the reaction was stopped by the addition of 50 μl of 1N HCl. OD 450 nm was read. […] After washing, HRP labeled anti-SA 2nd antibody (Sigma) was added and incubated at 37° C. for 1 hour. Then, 100 μl/well of TMB solution (Biotechnology) was added. After incubation for 15 minutes at room temperature, the reaction was stopped by the addition of 50 μl of 1N HCl. OD 450 nm was read. […] The competition assay of format III is a competitive FACS assay. […] After washing, dye labeled anti-His 2nd antibody (Sigma) was added and incubated at 37° C. for 1 hour. Fluorescence intensity was detected.
A general note: In an ELISA, binding on a coated surface is turned into a signal by an enzyme label.

Assay [2] has as its target T2, mFc tagged human LAG3 ECD recombinant protein (human, UniProt P18627 23-450).
T2 construct: extracellular domain; purchased from Biointron; not shown: mouse IgG Fc (mFc) tag
T2 sequence (looked up): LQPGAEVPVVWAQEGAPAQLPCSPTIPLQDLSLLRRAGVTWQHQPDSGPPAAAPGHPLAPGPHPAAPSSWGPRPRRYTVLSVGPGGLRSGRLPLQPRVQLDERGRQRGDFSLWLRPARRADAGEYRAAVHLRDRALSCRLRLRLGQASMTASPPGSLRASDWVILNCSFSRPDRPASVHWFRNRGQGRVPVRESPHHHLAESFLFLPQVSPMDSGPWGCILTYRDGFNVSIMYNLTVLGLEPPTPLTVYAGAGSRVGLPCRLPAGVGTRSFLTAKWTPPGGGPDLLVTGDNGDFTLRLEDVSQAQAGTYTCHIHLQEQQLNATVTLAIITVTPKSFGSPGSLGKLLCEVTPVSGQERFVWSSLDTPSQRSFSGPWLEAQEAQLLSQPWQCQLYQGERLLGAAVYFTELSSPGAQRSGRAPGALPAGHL
The assay is described as follows: competitive FACS: mFc-LAG3 ECD binding to Raji cells (MHC II). The procedure:
Activity of the purified chimeric antibodies to block LAG3 and MHC II interaction was determined by competitive FACS assay. […] After washing, dye labeled anti-mouse Fc 2nd antibody (Sigma) was added and incubated at 37° C. for 1 hour. Fluorescence intensity was detected.

For assay [3], the target named is T3, human LAG3, full length, stably expressed on cells (human, UniProt P18627 23-525).
T3 construct: whole, on cells; also called CHOK1-human LAG3
T3 sequence (looked up): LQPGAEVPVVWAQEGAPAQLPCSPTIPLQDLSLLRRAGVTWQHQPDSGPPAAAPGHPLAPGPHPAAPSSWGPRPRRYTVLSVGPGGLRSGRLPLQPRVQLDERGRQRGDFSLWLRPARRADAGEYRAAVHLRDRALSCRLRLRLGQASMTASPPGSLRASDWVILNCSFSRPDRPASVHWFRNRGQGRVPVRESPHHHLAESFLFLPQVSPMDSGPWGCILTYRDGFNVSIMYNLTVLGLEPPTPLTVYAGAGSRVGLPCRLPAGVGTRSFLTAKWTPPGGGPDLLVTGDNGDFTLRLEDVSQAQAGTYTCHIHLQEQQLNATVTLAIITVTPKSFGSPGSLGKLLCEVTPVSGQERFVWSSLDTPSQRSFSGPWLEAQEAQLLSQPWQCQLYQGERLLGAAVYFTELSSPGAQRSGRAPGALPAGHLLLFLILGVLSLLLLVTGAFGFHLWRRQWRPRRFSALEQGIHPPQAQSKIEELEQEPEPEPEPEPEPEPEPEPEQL
The assay is described as follows: competitive FACS format III: His-FGL1 binding to 293F-human LAG3 cells. The procedure: as §1

The target in assay [4] is T4, LAG3 D1 domain extra loop peptide (biotin labelled (site not stated)).
T4 peptide: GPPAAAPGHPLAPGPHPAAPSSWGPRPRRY
The assay is described as follows: ELISA format I: biotin labelled LAG3 D1 domain extra loop peptide on plate coated antibody; axis printed as Ab Conc. (nM). The procedure:
In ELISA binding assay of format I (FIG. 9A), biotin labelled LAG3 D1 domain extra loop peptide was incubated with ELISA microplate coated anti-LAG3 antibodies. After washing, HRP labeled anti-SA 2nd antibody (Sigma) was added and incubated at 37° C. for 1 hour. Then, 100 μl/well of TMB solution (Biotechnology) was added. After incubation for 15 minutes at room temperature, the reaction was stopped by the addition of 50 μl of 1N HCl. OD 450 nm was read. In ELISA binding assay of format II (FIG. 9B), biotin labelled LAG3 D1 domain extra loop peptide and anti-LAG3 antibodies were co-incubated in ELISA microplate coated with SA. After washing, HRP labeled anti-human Fc 2nd antibody (Sigma) was added and incubated at 37° C. for 1 hour. Then, 100 μl/well of TMB solution (Biotechnology) was added. After incubation for 15 minutes at room temperature, the reaction was stopped by the addition of 50 μl of 1N HCl. OD 450 nm was read.

The target of assay [5] is T5, human LAG3 (form used in Octet, Biacore and HDX-MS not given) (human, UniProt P18627 23-450, limits assumed).
T5 sequence (looked up): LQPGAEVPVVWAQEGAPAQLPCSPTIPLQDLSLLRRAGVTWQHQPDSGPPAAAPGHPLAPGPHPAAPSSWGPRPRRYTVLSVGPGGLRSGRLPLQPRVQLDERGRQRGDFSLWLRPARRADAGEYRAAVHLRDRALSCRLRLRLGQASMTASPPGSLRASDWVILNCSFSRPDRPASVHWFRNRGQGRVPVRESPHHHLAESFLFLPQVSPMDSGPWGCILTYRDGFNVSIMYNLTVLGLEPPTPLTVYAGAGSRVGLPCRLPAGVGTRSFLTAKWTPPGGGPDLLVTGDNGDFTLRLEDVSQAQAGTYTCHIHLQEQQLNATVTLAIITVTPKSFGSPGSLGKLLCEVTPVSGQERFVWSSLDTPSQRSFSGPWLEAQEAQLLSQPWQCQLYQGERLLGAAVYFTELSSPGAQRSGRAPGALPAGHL
The assay is described as follows: SPR (Biacore), 1:1 fit. The procedure: The association and dissociation curves were fit with 1:1 binding model, and the Ka/Kd/KD values for each antibody were calculated.
On the technique in general: Surface plasmon resonance follows binding to a sensor surface in real time, without labels.

B1: 023c (antibody, human IgG4, V domains shown)
VH: QIQLVQSGPVLKKPGETVKISCKASGYTFTESPMNWVKQAPGRGFKWMGMIYTDTGEPTYAEEFKGRFAFSLETSASTAYLQINNLKSEDTATYFCVSDYGSILYWYFDVWGTGTTVTVSS
VL: DIVMTQSHKFMSTSVGDRVSITCKASQDVSTAVAWYQQTPGQSPKLLIYSASYRYTGVPDRFTGSGSGTDFTFTISSVQAEDLAVYYCQQHYNSPPTFGAGTKLELK
notes: human IgG4 S228P / kappa chimeric antibody; also called chimeric antibody 023; ES005-023c; not shown: human kappa light chain constant region (pcDNA3.4-hIgGk vector)
Turning to B1, in assay [1], the IC50 came to 1.47 nM and the “TOP blocking (%)” value is 86.8%. In addition, in assay [2], the IC50 came out at 6.2 nM and the “TOP blocking (%)” value came to 99.2%. In addition, the “Blocking ratio at 200 nM (%)” value in assay [3] was 29%. The binding result in assay [4] is recorded as “no binding (tested: about 300 nM)”. For the same molecule, in assay [5], the Kd stood at 0.0775 nM, the koff was 0.000441 s⁻¹ and the kon was 5.68e+06 M⁻¹ s⁻¹.
